Biological target: T1, HSC70 (Homo sapiens, UniProt P11142)
T1 construct: made in house
Test: ELISA binding of HSC70 to immobilized CFTR NBD1 and competition by soluble peptides
Details: immobilized NBD1 incubated at 30 °C, direct comparison with immobilized 1097-L; n = 3, p < 0.01
Method: HSC70, DJA1 and DJA2 were purified as His-tagged proteins, as described. HSC70 was also amplified by PCR with an N-terminal FLAG tag, inserted into pPROEXHTa (Invitrogen) and purified as described. HSC70 was stored in 100 mM KOAc, 20 mM HEPES-KOH pH 7.5, 5 mM MgOAC2 (buffer G), DJA1 and DJA2 in 500 mM NaCl, 20 mM HEPES-KOH pH 7.5, 5 mM MgOAC2 (buffer H). Avi-tagged CFTR NBD1 was purified as described.
For NBD1 binding, 100 nM of strep-tagged NBD1 in 100 µl of 150 mM NaCl, 50 mM Na2HPO4 pH 7.5, 1 mM ATP, and 40 µM DTT (buffer N), was bound to streptavidin plates for 1 hour at 4 °C with agitation. Plates were washed with PBST and incubated in buffer N at 30 °C in a water bath for 5 min. Then, plates were blocked in PBST containing 0.5% BSA, followed by the addition of HSC70 binding reactions, and detection as above.

T1 sequence (P11142 whole entry): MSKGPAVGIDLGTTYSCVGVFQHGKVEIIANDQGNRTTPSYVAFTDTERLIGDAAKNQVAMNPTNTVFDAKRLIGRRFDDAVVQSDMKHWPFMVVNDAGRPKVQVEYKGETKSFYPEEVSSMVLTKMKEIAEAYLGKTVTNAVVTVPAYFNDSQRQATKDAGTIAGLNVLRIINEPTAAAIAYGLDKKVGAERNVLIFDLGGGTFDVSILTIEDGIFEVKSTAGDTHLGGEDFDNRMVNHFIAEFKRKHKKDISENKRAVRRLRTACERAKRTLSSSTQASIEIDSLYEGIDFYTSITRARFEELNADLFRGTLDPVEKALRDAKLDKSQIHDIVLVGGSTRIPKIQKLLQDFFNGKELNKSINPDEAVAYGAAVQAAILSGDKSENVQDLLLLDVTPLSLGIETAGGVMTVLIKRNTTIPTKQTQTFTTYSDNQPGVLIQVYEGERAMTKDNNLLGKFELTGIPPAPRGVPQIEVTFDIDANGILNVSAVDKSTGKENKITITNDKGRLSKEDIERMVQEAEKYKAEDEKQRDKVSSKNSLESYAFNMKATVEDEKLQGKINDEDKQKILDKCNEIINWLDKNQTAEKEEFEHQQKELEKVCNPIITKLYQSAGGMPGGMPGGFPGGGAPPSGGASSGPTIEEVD

B1: NBD1: Avi-tagged CFTR NBD1, purified and immobilized on streptavidin plates (protein)
chain: TTEVVMENVTAFWEEGFGELFEKAKQNNNNRKTSNGDDSLFFSNFSLLGTPVLKDINFKIERGQLLAVAGSTGAGKTSLLMVIMGELEPSEGKIKHSGRISFCSQFSWIMPGTIKENIIFGVSYDEYRYRSVIKACQLEEDISKFAEKDNIVLGEGGITLSGGQRARISLARAVYKDADLYLLDSPFGYLDVLTEKEIFESCVCKLMANKTRILVTSKMEHLKKADKILILHEGSSYFYGTFSELQNLQPDFSSKLMGCDSFDQFSAERRNSILTETLHRFSLEGDAPVS
modifications: left off: Avi-tag, end not stated, kept
notes: Avi-tagged CFTR NBD1, purified and immobilized on streptavidin plates
HSC70 binding to NBD1 relative to that observed for 1097-L: 73 ± 3%
